Test: soluble on expression in E. coli; label from the status in PepcDB or PDB records

| Sequence | soluble on expression in E. coli |
| --- | --- |
| MGSDKIHHHHHHVARLNAKQMEVFVAVMTHGSITAAGQRLNVSQPAVSRMIERFEQEAGFVAFERRRGKLVPTPEAEIFFAEVSQVYRGLDYLNEVAREIGTTRRGYLRVGVFPAFAEGWITERITRYVAGREELLTSLEPMSTDSVIEAVSRQTIDLGIALRASDREGLRSEEISSSEIVCILPKGHRLTGRPVLQPTDLSGEDFISMAAKVKARTSIDAVFDSSGVERRIRAETPWASTVCHMVAHGLGVGLVIRESAFEFAHLGYHIAAFKPRIDYRAYLITSTARPLSTAAKGFRDMLLLEFNQAKKAPRASKRWPT | not soluble |
| MGSDKIHHHHHHVDDGPCAARLRWTNSVMTEPLMPQTDVPFDELIIREYLLDNPDFFNRYPELLLAMRLPHMERGAISLVERRQEMLRQRVSQLEEEITSLLTMAARNEKIYQFNTELSFQLLNCADLVSLKEVLADSLKLQFNFSHVRLISVLDTDMKAIWDQRLHKGHYFGRLTQQEAKRLFGSEVGSVALTKLSEDNPVIFAIASQDATHFHPDMDNMLLEQLRRLLAHMLAKL | not soluble |
| MGSDKIHHHHHHVDGTSKQVIKRDKMITQAISQLTPQNKLLVEEINKNVQDTILERLNMNIAGRWNDSSLSLTLMKSTIKFVPVIDSPSRLYLVNDSEKVFRIPEKFACFYGQNDNGETIYFYAIYHAENFMKDTNPKSYYQGYVEVFGKEAADKMVESSIKRTEAERWEIMSFTPQKNETKKFEYAREHSDDGTFFILTRENTYPHICFFKDKKPYYCWGANQDELSMEPLENYLKP | not soluble |
| MGSDKIHHHHHHVEKLVILHTNDLHSHFENWPKIRRFMLGTRAAEQAEGASVLAFDDGDAMDRSAPLTEATQGQINVQLLNEIGYDAATIGNNEGVGNPHDVLEHLYDHANFPVALANLFEVDGSRPTWAKPFVRTQTRAGTRIAIVGFTAPFFLTYRPNGWQVKTVADVFPDILKQLSGTYDVLIVLSHLGIEADRHLAKQYPEIDVVIGGHTHHLLADGELHGTTLLTAAEKYGHYVGKVTLTLDDQHQIITRQAETFKTELMQAAAADPREIQGYESKGIALLKQHQVARLPKQLSIKYDGPSPLLDLGLEALADGAQVDAAILNAGLFLMPLGPGVVTQADLLTCLPHPMHLLKVTLSGKELWRLIMEMEKNRMFLRHFHMIGMSFRGKIFGDIGYRGISVNREKRVVLWHGKPLVPEQQYTFVTVDNFLFIPFFPTIEIMGSNELLFPKLLRNVVGEYLAQKYPL | not soluble |
| MGSDKIHHHHHHVEYRLPAEGSNLVGENQYYVVPEGKLTLEQIASQFQLGLTNLLEANPGVDPFLPKPGSTLLIPHQLILPNAKREGVVINSAEMRLYYYPKGKNTVEVLPIGIGQIGKDTPENWVTTVQRKRANPTWTPTVNIRKSYAAKGITLPAVWPAGADNPMGLFALYVGNLYAVHGTNATFGIGLRVSSGCVRLRDEDIEHLYNSVPVGTRVEFINQPIKATEEPDGNRYLEVHEPLSRTQAEFDSLEPVALSFDKAMTRFVAHPDTDSFTLKRLLEQRTGMPTRINP | not soluble |
| MGSDKIHHHHHHVGFLDGLMGGKQAPLVGLDISSSSVKLVELGQSASGQYVLERFATESFERGWIADGQIEKFDEVADAVRRVVSKSGTRSKRVAMAMPQSAVITKKIMLPAGLRDEELELQVESEANQYIPFSLDEVSLDFCVVGPSPSSVGDVEVLIAASRKDRVQDRQGLAEAAGLKPVVLDIESHASRLAMMRIVSALPNEGRDALVALFEIGAETTSLKVLRDEELLYDRDQAFGGSQLTQMISRQYGFSFEEAEQKKLASDLPEDYESSLLVPFVDSLAQEIGRALQYFFTSTPHHKVHYVMLGGGTATLPGLKERVTELTGFASMVVNPFEGMRLGSAVRESKLRREAPAYLTACGLAMRRFL | not soluble |
| MGSDKIHHHHHHVHHRHHKKGIIHRDADEMIEFPKRSNDRLGETMIHGQIICHGTPLDYVRPYLSSKKYPRVIINICVSDDGGWYRLTTGNMFDLEGSVTFTVRHQCLMDKLPPMIQCAVPYYTTEVTIDLSSNTTYIGRSFELSKMEAYSSADCLY | not soluble |
| MGSDKIHHHHHHVKLHVIHYNDLHSHFDMWPRYMSFMKEHRTYDSLVFDLGDHADRVAPATEATQGKINTHLLNELSPTAVTIGNNEGITFPHDWLAELYSDATFPVLVSNLSAPFAKAGMIQELPTGKVGIFGLTAPYYELYELLGWSIENPFEAAAREIEALRDQVDVLICLSHLGFYQDEDLAERFPELDLIIGSHTHHVLDDGVVRNGVLIAQAGKHGQYAGEIYLNTDTGEKEAVLHPLESYPEDEATAVLLDKEQYLAERQMKQPIGRTSGLANDWFNPSPFTQLLADTMRDWCQADLACVPAGMLLGSLSPGPVSSYDLHRLCPHPINPCKVTMTGKELKQFIAEVDTNRFEQLKVRGLGFRGKLMGKMHYAGNRQHLDDAKHYTVVLPDMFTFGPLFPEIKEMPKEYFMPELLRDLLFDRLSEKSEFGELPIRKH | not soluble |
| MGSDKIHHHHHHVLQLESIGVMDNYNKDLTPDQASAFLEVVDASLRIKKKAQLFSWLQGHFQFLLPHEVLLCGFAVGVGRNFSLETFSSTRYVTDAQVAIAMHERTGVVMKAIQAWRQTSQPVLIDPYLKDGNFGRFTVPKIDQVNLQESELRNIAAYGLSSADGSISSFFSFSRISGELNASHAYMLELLVPYLHSVLMRVSDGVFNFGDAMGEGVNAGIITPREKEILQWVHTGKSNWEIATILEISPLTVKNHMQNILRKLDVQNRSHAAAKAYRLGLIRH | not soluble |
| MGSDKIHHHHHHVLRAGLIHSLASRPQTWHSTAMDSDGYEIETHVGRRRAMRYHFWIDHEILRYPWTNFDEIAPGVFRSNHPTRARFKAYAERGIKTILTLRGGEDRPHHLLEVEACRDFGLTFECVPMSARHAPTVAQLSAVFEVLDRIERPFLIHCKSGADRTGLVSAIYLMHYENIPFDQARVQLSFRYIHIRRSQTGILDVFLEAFAARHAETGIGIRDWIMTEYDEAALTASFDQRQRNLWPWEGWRSGVS | not soluble |
| MGSDKIHHHHHHVLVRRLAQAPVPIAGVAVLGTITPEDQQAAEDARLPLLQLPEGVDLREVEREITRLITDYEAQFERRAARLYDLLTQCSLQGGGISGLLDILHERTGQSVAFYASNGVLRAQRGRGQSRLALQALRPNGRGETTLLNQQIWVEPIGNSGLPIGYVAIAGTLLDPWDRTAAQRGALALALELAKEQAVQAAEERLRGDFIAGILAGAPGDLAAVIQRGQELGYTLHLPHTAMLVHIDDASTATLARAATNIQNELKRLGVNAPISRRESNVLCMLPTTSVTRLRELTEQLRERLRLDHPNVVIAIGTPATHLTEWRRSVEEAEQSLSLGRQIFGNDRVLAFGDLGVYRLLIRLRETPELWSFYRETLSSLAEYDKRQHADLIKTLEAYFNHLGNLRATSEALHVHRNTLLYRLERIKEISGMDLDNAEEHFALWLAVRAHRILATLEE | not soluble |
| MGSDKIHHHHHHVRKFKIPNMGALLAFEAAARHESFTHAARELFLTESAVSRQINTLESNLGVRLFVRVKQRVMLTRAGKVYSAQVRRSLEQLDRDTLSIIAHGSGGGYLELAVLPTFASQWLIPRLAAFNAQYPDVRVNMGVRTGTFPFAETHFEAAIHYGKPTWPGTSADFLFSEEVVPVCAASLLKRPVQSAADLLDYPLVHSTTRPDGWAAWFANMGIDDNRTMQGVRYELHTMLISAAAAGLGIALVPRFFVDAQLEQLGLVIPLDAPVVADSAYYLVYPTELSHGKPLASFREWLLREAAAYSAVNPELGGPRDMD | not soluble |
| MGSDKIHHHHHHVSPHSPVQLSLPVYLPDDETFNSYYPAAGNDELILSLQASAEGRANKAVYLWGPVKAGRTHLMHATCARANELNRSSFYLPLGIHASISTELLEGLEQLDLVCIDDVDAIAGHPLWEEALFDLYNRVAEHKRCALVVSASATASDAGFALPDLVSRMQWGLTYQLQPMADEEKLAALQRRAAMRGLQLPEDVGRFLLNRLARDLRTLFDVLDRLDKASLVHQRKLTIPFVKEMLRL | not soluble |
| MGSDKIHHHHHHVSSPNIDIELDALKEAVSVALAHAKKLGSSAAEVAISKQQGLSVSTRTQEVETVEFNKDGALGITVYRGGCKGSSSTSDLSTDAIALAVKAADDIARYTSEDPFSGLADSALMAKNIRDLQLYYPQDIGAEELADLAIRAEKAGVDADTRIKYSDGATANAHTSAKVYANSHGFLQGYCSSRYSLSSVVIGEESDGNMQRDYDYTVSRKFADLLSPEEVGAKAAEKTLSRLDARKIATAKLPVLFAPEIATGLIGHLIGAISGGSLYRKSSFLLDSLHTHIFPDWFSIEEQPHILSGLASANYDSEGVATQDRRIIDRGQLETYLLTSYSARKLGMTNTGHAGGIYNWTLSHSNQTFADLIKAMNTGLIVTEVMGQGVNGVTGDYSRGAAGFYVENGVIQYPVEEITIAGNLKDMFIGIQGVAMDRDLRSSIRTGGILLSEMKIAGN | not soluble |
| MGSDKIHHHHHHVTTVTRSFDDAWRRWIAENLLLDAPPSALHGALLGHGFDAADVTREIEAALASPYFHGAARLRNRLRKREWILSVYSELNRMRAASGVIERCERLSRDAFFEQYYFQNRPVIITGAFDFWPACSRWNWDYLRRQCGDCEVEVQFGRESDANYEINQPRLTRMMRFADYVDLVEQRGPTNDFYMTANNTSRNRAALAALWSDVPPIDAYLDAASPDTGFFWMGPAGTKTPFHHDLTNNFMAQVIGRKHIKLVPLSDTPYMANHLHCYSRVDGGAIDFDSFPSMRQAQLIECTLAPGELLFLPVGWWHYVEGIDASVTMTFTNFLRSNDFSRRYDTYHEL | not soluble |
| MGSDKIHHHHHHVVAEAVNLQFDYSRYGFRQEERYVYKAPKGLNERIVRELSGMKGEPEWMLKRRLRALEIFNKKPTPLVGTWANPELAELNYDDIHYFVRANERPQTDWDAVPPEIKNTFERLGIPEAERKFLAGVGAQYESEVVYHSLREEWAKQGVIFLDTDTALKEYPEFFKEYFGTIVPAADNKYAALNTAVWSGGSFVYVPKGVKVDIPLQAYFRINAERMGQFERTLIIIDEGAEAHYIEGCTAPIYSTNSLHSAVVEVIVKKGGKFRYTTIQNWANNIFNLVTKRAVAYEEASMEWVDGNIGSKLTMKYPSVYLMGRKARGEVLSVAYAGRGQHQDAGAKMIHLAPETTSRITNKSVSKDGGKTTYRGLAKVAPGAYGAKINVNCDALILDEHSASDTIPYIEIEEDRCTLAHEATVGRIGAEQLFYLMSRGISESDALSMIVLGFMEPFTRELPMEYAVELNRLIQLEMEGSVG | not soluble |
| MGSDKIHHHHHHVYYAHFGLKEPPFKITPNTDFFFRGGNRGAVLEALRYAILHGEGIVKVVGEVGSGKTMLCRMLQTQLPDHVDSVYLANPSMAPEDVLHAIALELHLDIPDRLSKLEVMQRLQQALLDKHEARRQVVVFVEEAQGMPLATLEEIRLLTNLETRHHKLLQIVLFGQPELDDNLNQRQIRQLKERITHSFYLGPLSRDEIAEYLMFRLRAAGYYGPPLFTKRAVKQLAKMAQGLVRRVNILADKSLLAAFAANADQVTPRHVAAAIRDSEFAGEIQRPVGRWSVLIGGLVLGVAGMALYAWSQGMLPLPVAPAPVTHAETEQRLEEAHSLENESGRGMSGVLPLLMQREEASLVWLDSTPPEYITIALMHDFPETDQEKEQQLLSANLVLDDVYALRTKVGEEDRVIILYGAYENRQQALEEFRSLPKALQMGAYLRTIAGIREELLQHQ | not soluble |
| MGSEHAFQGPTSFHVIQTSSFTNSTWAQTQGSGWLDDLQIHGWDSDSGTAIFLKPWSKGNFSDKEVAELEEIFRVYIFGFAREVQDFAGDFQMKYPFEIQGIAGCELHSGGAIVSFLRGALGGLDFLSVKNASCVPSPEGGSRAQKFCALIIQYQGIMETVRILLYETCPRYLLGVLNAGKADLQRQVKPEAWLSSGPSPGPGRLQLVCHVSGFYPKPVWVMWMRGEQEQQGTQLGDILPNANWTWYLRATLDVADGEAAGLSCRVKHSSLEGQDIILYWGPGSGGGLNDIFEAQKIEWH | soluble |

Source: the DeepSol protein solubility set
